Data: the Human Domainome abundance scans (Beltran et al. 2025)
± gives the uncertainty stated by the source.

B1: Myocardin-related transcription factor A, residues 341 to 383; numbered along this chain, Q969V6 (parent)
chain: GALPANLDDMKVAELKQELKLRSLPVSGTKTELIERLRAYQDQ

Variants of: B1
Experiment: abundance fitness (aPCA) (normalised: wild type 0, dead -1); higher = more abundant; growth selection in yeast, the domain comes from the species named
Conditions: Homo sapiens

Abundance fitness, by site and new letter:
Q17: F -0.234 ± 0.085 | M 0.079 ± 0.12 | Y -0.263 ± 0.12 | G -0.153 ± 0.064 | W -0.595 ± 0.12 | K -0.283 ± 0.14 | C -0.593 ± 0.11 | D -0.247 ± 0.091 | V -0.207 ± 0.076 | L -0.306 ± 0.16 | P -0.794 ± 0.14 | S -0.036 ± 0.084 | T -0.134 ± 0.078 | E 0.048 ± 0.083 | A 0.015 ± 0.077 | R -0.049 ± 0.059
K20: H -0.342 ± 0.18 | R 0.011 ± 0.06 | E 0.145 ± 0.08 | V -0.041 ± 0.072 | C 0.309 ± 0.13 | T -0.145 ± 0.1 | P -0.453 ± 0.091 | M 0.044 ± 0.098 | Y 0.657 ± 0.28 | W -0.372 ± 0.072 | F -0.153 ± 0.097 | S 0.05 ± 0.075 | L 0.002 ± 0.075 | A -0.003 ± 0.071 | N -0.137 ± 0.12 | D -0.061 ± 0.12
T31: Y -0.193 ± 0.13 | Q -0.138 ± 0.068 | L -0.145 ± 0.08 | G -0.011 ± 0.06 | P -0.074 ± 0.077 | N -0.332 ± 0.25 | A 0.098 ± 0.058 | M -0.089 ± 0.12 | S -0.061 ± 0.07 | H -0.129 ± 0.17 | K -0.141 ± 0.088 | E 0.085 ± 0.07 | W -0.246 ± 0.063 | R 0.012 ± 0.055 | I 0.092 ± 0.12 | V -0.035 ± 0.065 | D 0.005 ± 0.099
S27: C -0.201 ± 0.1 | A 0.181 ± 0.14 | E 0.043 ± 0.1 | Y -0.136 ± 0.21 | V -0.251 ± 0.11 | K -0.196 ± 0.15 | T -0.196 ± 0.23 | D 0.11 ± 0.097 | G -0.012 ± 0.075 | L -0.376 ± 0.16 | W -0.115 ± 0.091 | M -0.286 ± 0.11 | R -0.186 ± 0.064 | P -0.08 ± 0.19 | Q -0.424 ± 0.26
G28: C -0.608 ± 0.25 | Q -0.659 ± 0.1 | D -0.758 ± 0.13 | V -1.38 ± 0.15 | K -0.862 ± 0.22 | A -1.02 ± 0.1 | W -1.03 ± 0.16 | S -0.85 ± 0.1 | E -0.628 ± 0.088 | Y -0.626 ± 0.29 | H -1.18 ± 0.19 | P -1.13 ± 0.27 | L -1.06 ± 0.092 | M -0.957 ± 0.12 | T -1.56 ± 0.43
L37: M -0.165 ± 0.081 | A -0.435 ± 0.076 | E -0.504 ± 0.086 | G -0.303 ± 0.067 | C -0.404 ± 0.13 | D -0.298 ± 0.087 | K -0.455 ± 0.14
V26: Y -0.031 ± 0.23 | G -0.038 ± 0.12 | C -0.223 ± 0.18 | H -0.265 ± 0.15 | Q 0.155 ± 0.096 | M -0.032 ± 0.074 | K -0.195 ± 0.14 | A 0.18 ± 0.082 | R -0.129 ± 0.067 | L 0.229 ± 0.071 | P 0.191 ± 0.084 | E 0.168 ± 0.082 | S -0.035 ± 0.071 | N -0.466 ± 0.17 | F -0.033 ± 0.12 | W -0.538 ± 0.24
T29: S -0.084 ± 0.072 | W -0.601 ± 0.12 | D -0.147 ± 0.087 | I -0.362 ± 0.11 | R -0.196 ± 0.069 | Y -0.44 ± 0.21 | V -0.26 ± 0.07 | L -0.376 ± 0.11 | K -0.092 ± 0.093 | M -0.447 ± 0.081 | Q 0.157 ± 0.14 | H -0.142 ± 0.17 | E 0.009 ± 0.079 | C -0.198 ± 0.072
K16: Y -0.131 ± 0.21 | M 0.169 ± 0.18 | H 0.123 ± 0.16 | P -0.587 ± 0.1 | T -0.036 ± 0.077 | Q 0.186 ± 0.18 | D -0.714 ± 0.25 | E -0.052 ± 0.068 | N -0.384 ± 0.11 | L -0.408 ± 0.14 | R -0.159 ± 0.067 | S 0.006 ± 0.14 | V -0.143 ± 0.076
S23: D 0.073 ± 0.072 | A 0.018 ± 0.063 | W -0.256 ± 0.083 | R -0.036 ± 0.061 | E 0.092 ± 0.084 | C 0.052 ± 0.11 | Y 0.038 ± 0.2 | P -0.834 ± 0.28 | Q -0.101 ± 0.083 | M -0.162 ± 0.095 | F -0.205 ± 0.14 | N 0.008 ± 0.071 | I -0.307 ± 0.084 | L -0.018 ± 0.071 | G 0.291 ± 0.063 | V -0.22 ± 0.072 | K 0.142 ± 0.15 | H 0.176 ± 0.11
L33: S -0.067 ± 0.094 | N 0.592 ± 0.39 | P -0.403 ± 0.17 | V -0.249 ± 0.081 | K -0.315 ± 0.095 | G -0.224 ± 0.082 | T -0.283 ± 0.098 | M 0.046 ± 0.32 | Q -0.128 ± 0.091 | R -0.617 ± 0.07 | A -0.261 ± 0.26
L19: S -0.237 ± 0.2 | V -0.286 ± 0.073 | H -0.852 ± 0.28 | Q -0.408 ± 0.09 | M 0.178 ± 0.29 | K -0.8 ± 0.12 | G -0.536 ± 0.066 | R -0.812 ± 0.088 | A -0.048 ± 0.087 | C -0.083 ± 0.09 | E -0.55 ± 0.1 | T -0.391 ± 0.11 | W -0.911 ± 0.23 | D -0.621 ± 0.18
L24: A -0.27 ± 0.088 | H -0.979 ± 0.18 | R -0.436 ± 0.074 | G -0.471 ± 0.077 | Y -1.02 ± 0.2 | M -0.091 ± 0.078 | W -0.751 ± 0.13 | V -0.342 ± 0.075 | I -0.425 ± 0.11 | Q -0.07 ± 0.13 | D -0.835 ± 0.19 | C -0.385 ± 0.091 | P -0.639 ± 0.13
I34: W -0.363 ± 0.077 | R -0.146 ± 0.063 | V -0.21 ± 0.079 | K -0.031 ± 0.071 | L -0.146 ± 0.086 | T -0.151 ± 0.1 | H -0.186 ± 0.12 | Y 0.017 ± 0.12 | E -0.151 ± 0.18 | Q 0.116 ± 0.15 | D -0.546 ± 0.12 | G -0.305 ± 0.074 | A -0.187 ± 0.081 | C -0.139 ± 0.079 | M -0.144 ± 0.089
E35: T -0.173 ± 0.14 | A 0.23 ± 0.06 | W -0.19 ± 0.11 | L 0.026 ± 0.16 | S 0.109 ± 0.091 | Y 0.166 ± 0.18 | R -0.047 ± 0.058 | Q 0.398 ± 0.12 | I -0.174 ± 0.16 | P -0.505 ± 0.1 | V -0.171 ± 0.078 | K 0.035 ± 0.1 | G 0.041 ± 0.08 | F -0.242 ± 0.083
L15: T -0.403 ± 0.13 | R -0.831 ± 0.14 | H -0.621 ± 0.21 | V -0.092 ± 0.066 | K -0.508 ± 0.14 | G -0.558 ± 0.063 | W -1.38 ± 0.15 | N -0.628 ± 0.22 | I 0.119 ± 0.22 | M -0.481 ± 0.27 | Q -0.662 ± 0.12
K30: V -0.509 ± 0.09 | M -0.332 ± 0.21 | W -0.6 ± 0.081 | E -0.269 ± 0.093 | A -0.403 ± 0.088 | Q -0.092 ± 0.098 | D -0.478 ± 0.084 | T -0.091 ± 0.092 | I -0.158 ± 0.15 | H -0.217 ± 0.086 | P -0.242 ± 0.17 | G -0.494 ± 0.07 | R 0.024 ± 0.07 | S -0.231 ± 0.08 | F -0.463 ± 0.14 | N -0.343 ± 0.11
E32: H -0.375 ± 0.14 | T -0.143 ± 0.12 | P -0.533 ± 0.1 | G -0.606 ± 0.071 | M -0.239 ± 0.16 | I -0.149 ± 0.12 | R -0.319 ± 0.055 | K -0.198 ± 0.097 | W -1.15 ± 0.14 | C -0.17 ± 0.072 | Y -0.669 ± 0.12 | A -0.053 ± 0.063 | Q -0.038 ± 0.086 | L -0.472 ± 0.081 | N -0.357 ± 0.43 | V -0.093 ± 0.069
E18: I -0.906 ± 0.24 | A -0.007 ± 0.067 | V -0.15 ± 0.12 | M -0.274 ± 0.12 | H -0.432 ± 0.23 | R -0.593 ± 0.058 | T -0.5 ± 0.098 | W -0.606 ± 0.09 | Q -0.292 ± 0.11 | G -0.701 ± 0.084 | C -0.2 ± 0.1 | P -1.33 ± 0.25 | S -0.28 ± 0.18 | L -0.35 ± 0.084 | K -0.365 ± 0.12
R36: S -0.291 ± 0.075 | W -0.73 ± 0.08 | N -0.356 ± 0.12 | M -0.395 ± 0.21 | K -0.234 ± 0.1 | T -0.113 ± 0.082 | G -0.188 ± 0.065 | A -0.128 ± 0.066 | I -0.728 ± 0.27 | V -0.339 ± 0.061 | E -0.529 ± 0.12 | Q -0.201 ± 0.072 | L -0.416 ± 0.086 | C -0.128 ± 0.12 | P -0.066 ± 0.1
L21: H 0.003 ± 0.23 | A 0.038 ± 0.075 | Q 0.061 ± 0.1 | C -0.229 ± 0.14 | N -0.08 ± 0.45 | V -0.004 ± 0.068 | F -0.177 ± 0.091 | P -0.593 ± 0.13 | W -0.283 ± 0.078 | G -0.067 ± 0.065 | T 0.094 ± 0.085 | D 0.041 ± 0.081 | R 0.057 ± 0.063 | E 0.098 ± 0.071 | S -0.089 ± 0.06
R22: D -0.327 ± 0.22 | S -0.561 ± 0.16 | H -0.232 ± 0.096 | K -0.318 ± 0.14 | A -0.099 ± 0.16 | V -0.277 ± 0.094 | E -0.163 ± 0.11 | M -0.229 ± 0.18 | L -0.223 ± 0.1 | P -0.561 ± 0.25 | N -0.47 ± 0.17 | G -0.54 ± 0.096 | Q -0.079 ± 0.088 | W -0.572 ± 0.16 | C -0.178 ± 0.12 | T -0.301 ± 0.2 | F -0.816 ± 0.41
P25: D -0.197 ± 0.088 | F -0.963 ± 0.14 | V -0.358 ± 0.11 | G -0.186 ± 0.059 | S -0.165 ± 0.077 | K -0.135 ± 0.1 | A -0.263 ± 0.069 | Q -0.167 ± 0.44 | W -0.808 ± 0.072 | I 0.319 ± 0.25 | R -0.304 ± 0.069 | Y -0.293 ± 0.18 | H -0.875 ± 0.21 | L -0.542 ± 0.074 | E -0.055 ± 0.076
